Patent publication US20240116985A1, “STAPLED PEPTIDES AND METHODS THEREOF” (priority 2020, published 2024)
Starred links: 1 amine or outer side, 2 acyl side, 3 side chain; linkers in the order of their positions; H or OH if unused. Positions of bridges follow the written chain, without caps; N, C: chain ends. Non-standard residues stand in square brackets, D forms with d. Primed or numbered codes have the meaning given here. No end group written: not given here. *: point of attachment. (CH2CMe2CO2H)TriAzDap = (S)-3-(1-(2-amino-2-carboxyethyl)-1H-1,2,3-triazol-4-yl)-2,2-dimethylpropanoic acid, CC(C)(Cc1cn(C[C@H](N[*:1])C(=O)[*:2])nn1)C(=O)[*:3]; (CMe2CO2H)TriAzDap = (S)-2-amino-3-(4-(2-carboxypropan-2-yl)-1H-1,2,3-triazol-1-yl)propanoic acid, CC(C)(C(=O)[*:3])c1cn(C[C@H](N[*:1])C(=O)[*:2])nn1; PyrS2″ = (S)-3-amino-1-((pent-4-en-1-yloxy)carbonyl)pyrrolidine-3-carboxylic acid (stapling residue), C=CCCCOC(=O)N1CC[C@@](N[*:1])(C(=O)[*:2])C1; (CH2CH2CO2H)TriAzDap = (S)-2-amino-3-(4-(2-carboxyethyl)-1H-1,2,3-triazol-1-yl)propanoic acid, O=C([C@H](Cn1cc(CCC(=O)[*:3])nn1)N[*:1])[*:2]; B5(4) = 2,2-bis(4-pentenyl)glycine = 2-amino-2-(pent-4-en-1-yl)hept-6-enoic acid (stitching residue), C=CCCCC(CCCC=C)(N[*:1])C(=O)[*:2]; B5(5) = 2,2-bis(4-pentenyl)glycine, 2-amino-2-(pent-4-en-1-yl)hept-6-enoic acid (stitching residue), C=CCCCC(CCCC=C)(N[*:1])C(=O)[*:2]; TfeGA = (S)-2-amino-3-((carboxymethyl)(2,2,2-trifluoroethyl)amino)propanoic acid, O=C([C@H](CN(CC(=O)[*:3])CC(F)(F)F)N[*:1])[*:2]; PyrS2(5) = (S)-3-amino-1-((alkenyloxy)carbonyl)pyrrolidine-3-carboxylic acid, carbamate stapling residue; 2COOHF = (S)-2-(2-amino-2-carboxyethyl)benzoic acid, O=C([C@H](Cc1ccccc1C(=O)[*:3])N[*:1])[*:2]; Phe(3-COOH) = N[C@@H](Cc1cccc(C(=O)O)c1)C(=O)O; Phe(2-CF3) = N[C@@H](Cc1ccccc1C(F)(F)F)C(=O)O; Phe(2-Cl) = N[C@@H](Cc1ccccc1Cl)C(=O)O; 2Nal = N[C@@H](Cc1ccc2ccccc2c1)C(=O)O; Bta = N[C@@H](Cc1csc2ccccc12)C(=O)O; αAllylPro = C=CC[C@@]1(C(=O)O)CCCN1; tBuAla = CC(C)(C)C[C@H](N)C(=O)O; 2Thi = N[C@@H](Cc1cccs1)C(=O)O; 3Thi = N[C@@H](Cc1ccsc1)C(=O)O; S8 = C=CCCCCCC[C@](C)(N)C(=O)O; Thr(ol) = C[C@@H](O)[C@H](N)CO; Alaol = C[C@@H](CO)N*

Columns and labels:
Bcat-Halo [1] = molecular target: Bcat-Halo (UniProt P35222); assay: NanoBRET Abs IC50, HEK293 cells, B-cat-Halo / TCF4-Luc engagement
Chain of Bcat-Halo (P35222 whole entry): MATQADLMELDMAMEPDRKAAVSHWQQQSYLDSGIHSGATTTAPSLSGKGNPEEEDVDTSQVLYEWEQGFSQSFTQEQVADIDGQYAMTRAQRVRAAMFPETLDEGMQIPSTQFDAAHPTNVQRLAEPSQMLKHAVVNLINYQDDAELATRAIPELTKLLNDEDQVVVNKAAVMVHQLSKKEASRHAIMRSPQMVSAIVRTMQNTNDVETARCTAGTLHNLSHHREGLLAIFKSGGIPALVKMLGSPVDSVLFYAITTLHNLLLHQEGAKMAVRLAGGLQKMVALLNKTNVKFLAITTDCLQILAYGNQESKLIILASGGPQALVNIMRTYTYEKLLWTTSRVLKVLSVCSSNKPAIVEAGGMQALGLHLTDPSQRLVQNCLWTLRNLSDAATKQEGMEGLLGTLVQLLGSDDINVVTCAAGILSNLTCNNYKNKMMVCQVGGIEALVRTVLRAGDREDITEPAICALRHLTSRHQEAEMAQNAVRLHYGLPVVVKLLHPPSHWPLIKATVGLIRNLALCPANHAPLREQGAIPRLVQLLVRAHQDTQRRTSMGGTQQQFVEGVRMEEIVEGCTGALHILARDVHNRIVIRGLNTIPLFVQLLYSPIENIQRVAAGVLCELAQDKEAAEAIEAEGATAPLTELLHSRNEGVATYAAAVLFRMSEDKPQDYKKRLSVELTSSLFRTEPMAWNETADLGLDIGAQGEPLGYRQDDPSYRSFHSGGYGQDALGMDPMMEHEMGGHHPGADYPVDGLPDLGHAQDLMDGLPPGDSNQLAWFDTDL

[2] = molecular target: full-length beta-Catenin (Uniprot ID P35222) (Homo sapiens (Human)) (UniProt P35222); assay: fluorescence polarization competition against 5FAM-TCF4 10-53 on full-length beta-catenin
Target sequence in this assay (P35222 whole entry, one chain of several): as the sequence (P35222 whole entry) above

[3] = molecular target: B-cat-Halo (NanoBRET construct) (UniProt P35222); assay: NanoBRET Abs IC50; Bcat-Halo/TCF4-Luc in HEK293 cells, competitor TCF4-Luc
Chain of B-cat-Halo (NanoBRET construct) (P35222 whole entry): as above

[4] = molecular target: full-length beta-Catenin (Uniprot ID P35222) (Homo sapiens (Human)) (UniProt P35222); assay: fluorescence polarization competition; full-length beta-catenin, 5FAM-TCF4(10-53) probe
Target sequence in this assay (P35222 whole entry, one chain of several): as the sequence (P35222 whole entry) above

[5] = molecular target: full-length beta-Catenin (Uniprot ID P35222) (Homo sapiens (Human)) (UniProt P35222); assay: fluorescence polarization competition; full-length beta-catenin, 5FAM-TCF4(10-53) probe as competitor
Target sequence in this assay (P35222 2-781 limits assumed): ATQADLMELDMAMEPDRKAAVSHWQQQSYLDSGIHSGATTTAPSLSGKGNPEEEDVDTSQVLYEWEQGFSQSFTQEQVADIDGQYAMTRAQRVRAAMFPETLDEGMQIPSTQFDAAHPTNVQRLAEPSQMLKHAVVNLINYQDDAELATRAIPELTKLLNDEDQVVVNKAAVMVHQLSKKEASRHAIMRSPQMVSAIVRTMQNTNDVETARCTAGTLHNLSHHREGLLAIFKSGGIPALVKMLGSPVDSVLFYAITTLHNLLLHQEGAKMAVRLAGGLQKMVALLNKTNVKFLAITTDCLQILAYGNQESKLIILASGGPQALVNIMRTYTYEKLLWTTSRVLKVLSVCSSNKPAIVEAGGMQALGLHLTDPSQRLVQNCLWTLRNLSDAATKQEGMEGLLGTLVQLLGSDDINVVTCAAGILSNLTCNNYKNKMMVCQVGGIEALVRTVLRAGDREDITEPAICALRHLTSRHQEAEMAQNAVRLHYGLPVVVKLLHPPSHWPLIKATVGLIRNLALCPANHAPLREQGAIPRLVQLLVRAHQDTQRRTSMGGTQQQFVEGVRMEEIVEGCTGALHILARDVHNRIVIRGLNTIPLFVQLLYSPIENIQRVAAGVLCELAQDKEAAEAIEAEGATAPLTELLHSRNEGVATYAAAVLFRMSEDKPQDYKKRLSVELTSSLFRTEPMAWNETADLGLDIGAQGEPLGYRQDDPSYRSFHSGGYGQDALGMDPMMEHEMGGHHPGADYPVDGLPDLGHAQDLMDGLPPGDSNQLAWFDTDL

[6] = molecular target: full-length beta-Catenin (Uniprot ID P35222) (Homo sapiens (Human)) (UniProt P35222); assay: FP competition: displacement of 5FAM-TCF4(10-53) from full-length beta-catenin
Target sequence in this assay (P35222 whole entry, one chain of several): as the sequence (P35222 whole entry) above

[7] = molecular target: B-cat-Halo (beta-catenin HaloTag NanoBRET construct expressed in HEK293 cells) (UniProt P35222); assay: NanoBRET Abs IC50 in HEK293 cells; Bcat-Halo, TCF4-Luc as competitor
Chain of B-cat-Halo (beta-catenin HaloTag NanoBRET construct expressed in HEK293 cells) (P35222 whole entry): as above

[8] = molecular target: full-length beta-Catenin (Uniprot ID P35222) (Homo sapiens (Human)) (UniProt P35222); assay: AlphaScreen competition vs biotin-TCF4(10-53) on full-length beta-catenin
Target sequence in this assay (P35222 whole entry, one chain of several): as the sequence (P35222 whole entry) above

Bcat-Halo [9] = molecular target: Bcat-Halo (UniProt P35222); assay: NanoBRET Abs IC50, HEK293 cells; B-cat-Halo/TCF4-Luc engagement, competitor TCF4-Luc
[10] = molecular target: full-length beta-Catenin (Uniprot ID P35222) (Homo sapiens (Human)) (UniProt P35222); assay: fluorescence polarization competition; full-length beta-catenin with 5FAM-TCF4(10-53) probe as competitor
Target sequence in this assay (P35222 2-781 limits assumed): as the sequence (P35222 2-781 limits assumed) above

[11] = molecular target: full-length beta-Catenin (Uniprot ID P35222) (Homo sapiens (Human)) (UniProt P35222); assay: FP competition; full-length beta-catenin, competitor 5FAM-TCF4(10-53)
Target sequence in this assay (P35222 whole entry, one chain of several): as the sequence (P35222 whole entry) above

Bcat-Halo [12] = molecular target: Bcat-Halo (UniProt P35222); assay: NanoBRET absolute IC50, HEK293 cells, Bcat-Halo/TCF4-Luc engagement
[13] = molecular target: full-length beta-Catenin (Uniprot ID P35222) (Homo sapiens (Human)) (UniProt P35222); assay: FP competition, full-length beta-catenin, competitor probe 5FAM-TCF4 10-53
Target sequence in this assay (P35222 2-781 limits assumed): as the sequence (P35222 2-781 limits assumed) above

B1: I-2379 (peptide)
peptide: Ac-[αAllylPro]D[tBuAla][B5(5)]D[Phe(3-COOH)]AAFL[PyrS2″][Phe(2-CF3)][Bta]QLV-NH2
modifications: staple 1-4, 4-11
IC50 (Bcat-Halo [1]): 5000 nM | IC50 [2]: 246 nM

B2: I-1669 (peptide)
peptide: Ac-[αAllylPro]D[tBuAla][B5(5)]D[2COOHF]AAFF[PyrS2(5)][3Thi][Bta][Thr(ol)]
modifications: staple 1-4, 4-11; also: staple isomer, later-eluting HPLC peak
IC50 [3]: 11800 nM | IC50 [4]: 30 nM

B3: I-2369 (peptide)
peptide: Ac-[αAllylPro]D[tBuAla][B5(4)]D[(CMe2CO2H)TriAzDap]QAFL[PyrS2″][Phe(2-CF3)][Bta]A-NH2
modifications: staple 1-4, 4-11
IC50 (Bcat-Halo [1]): 9500 nM | IC50 [2]: 14 nM

B4: I-1662 (peptide)
peptide: Ac-[αAllylPro]D[tBuAla][B5(5)]D[2COOHF]AAFF[PyrS2″][Phe(2-Cl)][Bta]S-NH2
modifications: staple 1-4, 4-11
IC50 [3]: 12000 nM | IC50 [4]: 69 nM

B5: I-1242 (peptide)
peptide: Ac-[αAllylPro]D[tBuAla][B5(4)]D[TfeGA]AAFT[PyrS2″][Phe(2-Cl)][Bta]-Alaol
modifications: staple 1-4, 4-11
IC50 [5]: 30 nM | EC50 [6]: 30 nM | IC50 [7]: > 20000 nM

B6: I-297 (peptide)
peptide: Ac-[αAllylPro]DA[B5(4)]D[2Nal]AAFV[S8]F[Bta]Q-NH2
modifications: staple 1-4, 4-11
EC50 [8]: 5810 nM

B7: I-1357 (peptide)
peptide: [αAllylPro]D[tBuAla][B5(4)]DDAAFS[PyrS2″]F[Bta]S-NH2
modifications: staple 1-4, 4-11
IC50 (Bcat-Halo [9]): 33600 nM | IC50 [10]: 10 nM | EC50 [11]: 10 nM

B8: I-1241 (peptide)
peptide: Ac-[αAllylPro]D[tBuAla][B5(4)]D[TfeGA]AAFT[PyrS2″][Phe(2-Cl)][Bta][Thr(ol)]
modifications: staple 1-4, 4-11
IC50 [5]: 19 nM | EC50 [6]: 19 nM | IC50 [7]: 15700 nM

B9: I-1664 (peptide)
peptide: Ac-[αAllylPro]D[tBuAla][B5(5)]D[2COOHF]AAFF[PyrS2″][3Thi][Bta]S-NH2
modifications: staple 1-4, 4-11
IC50 [3]: 8000 nM | IC50 [4]: 22 nM

B10: I-2368 (peptide)
peptide: Ac-[αAllylPro]D[tBuAla][B5(4)]D[(CH2CMe2CO2H)TriAzDap]QAFL[PyrS2″][Phe(2-CF3)][Bta]A-NH2
modifications: staple 1-4, 4-11
IC50 (Bcat-Halo [1]): 5000 nM | IC50 [2]: 5 nM

B11: I-298 (peptide)
peptide: Ac-[αAllylPro]DA[B5(4)]D[2Nal]AAFS[S8]F[Bta]Q-NH2
modifications: staple 1-4, 4-11
EC50 [8]: 3860 nM

B12: I-1345 (peptide)
peptide: [αAllylPro]D[tBuAla][B5(4)]DDAAFF[PyrS2″][2Thi][Bta]Q-NH2
modifications: staple 1-4, 4-11
IC50 (Bcat-Halo [12]): 4700 nM | IC50 (Bcat-Halo [9]): 4700 nM | EC50 [11]: 15 nM | IC50 [13]: 15 nM

B13: I-2367 (peptide)
peptide: Ac-[αAllylPro]D[tBuAla][B5(4)]D[(CH2CH2CO2H)TriAzDap]QAFL[PyrS2″][Phe(2-CF3)][Bta]A-NH2
modifications: staple 1-4, 4-11
IC50 (Bcat-Halo [1]): 6200 nM | IC50 [2]: 7 nM
